Laboratory results reported in publication PMC6824469.

biological target: Prp43p (rPrp43p);Ntr1p (1-120) (Saccharomyces cerevisiae (budding …, UniProt P53131;Q06411 1-767;1-120, |)); assay: EMSA
Sequence (P53131 whole entry, chain 1 of 2): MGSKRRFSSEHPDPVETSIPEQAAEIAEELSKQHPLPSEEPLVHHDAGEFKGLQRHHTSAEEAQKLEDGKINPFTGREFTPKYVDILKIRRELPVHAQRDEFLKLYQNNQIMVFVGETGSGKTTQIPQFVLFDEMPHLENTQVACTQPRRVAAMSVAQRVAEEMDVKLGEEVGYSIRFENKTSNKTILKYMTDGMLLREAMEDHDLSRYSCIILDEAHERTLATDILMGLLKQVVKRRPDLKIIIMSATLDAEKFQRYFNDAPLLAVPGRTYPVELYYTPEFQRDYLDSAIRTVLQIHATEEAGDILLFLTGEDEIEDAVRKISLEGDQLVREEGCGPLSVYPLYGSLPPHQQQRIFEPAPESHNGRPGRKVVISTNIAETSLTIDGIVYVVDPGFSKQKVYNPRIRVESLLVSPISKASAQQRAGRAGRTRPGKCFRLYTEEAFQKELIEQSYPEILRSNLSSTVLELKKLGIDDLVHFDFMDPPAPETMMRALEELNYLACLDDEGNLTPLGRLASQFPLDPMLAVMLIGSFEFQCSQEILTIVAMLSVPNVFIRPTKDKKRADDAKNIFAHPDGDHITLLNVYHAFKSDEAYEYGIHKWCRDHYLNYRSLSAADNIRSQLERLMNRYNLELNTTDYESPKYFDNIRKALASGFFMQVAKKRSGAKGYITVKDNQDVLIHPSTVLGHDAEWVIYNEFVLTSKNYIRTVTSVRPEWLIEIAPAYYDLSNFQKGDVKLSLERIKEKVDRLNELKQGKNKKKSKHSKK
Sequence (Q06411 1-120, chain 2 of 2): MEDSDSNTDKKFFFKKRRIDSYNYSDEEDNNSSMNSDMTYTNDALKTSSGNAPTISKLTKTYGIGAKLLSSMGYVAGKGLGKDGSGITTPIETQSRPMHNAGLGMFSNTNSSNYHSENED

Binder	binding result
substrate-4 (RNA-4/Cy5 DNA) (DNA:RNA, DNA at nt 17-24 of strand 1 (proximal end of duplex)) DNA 1: GGCACCAACACAAAACACATCTACACUCAACAAUCACUUU DNA 2: GTAGATGTGTTTTGTGTTGGTGCC	binds
substrate-5 (RNA-5/Cy5 DNA) (DNA:RNA, DNA at nt 9-16 of strand 1 (middle of duplex)) RNA: GGCACCAACACAAAACACAUCUACACUCAACAAUCACUUU DNA: GTAGATGTGTTTTGTGTTGGTGCC	binds
substrate-1 (RNA-1/Cy5 DNA) (DNA:RNA) RNA: GGCACCAACACAAAACACAUCUACACUCAACAAU DNA: GTAGATGTGTTTTGTGTTGGTGCC	binds
